# Results reported in the supplement of paper PMC11246515.
# ± gives the standard deviation of the averaged measurements.
# Experiment: total protein half-life in vivo (active degradation + dilution); higher = more stable protein
# [1] = E. coli NCM3722 delta-clpP delta-lon delta-hslV, growth: N-lim chemostat, doubling time 6 h
# [2] = E. coli NCM3722 delta-clpP, growth: N-lim chemostat, doubling time 6 h
# [3] = E. coli NCM3722 delta-hslV, growth: N-lim chemostat, doubling time 6 h
# [4] = E. coli NCM3722 delta-lon, growth: N-lim chemostat, doubling time 6 h
# [5] = E. coli NCM3722 delta-smpB, growth: N-lim chemostat, doubling time 6 h
# [6] = wild type E. coli NCM3722, growth: C-lim chemostat, doubling time 3 h
# [7] = wild type E. coli NCM3722, growth: C-lim chemostat, doubling time 6 h
# [8] = wild type E. coli NCM3722, growth: C-lim chemostat, doubling time 12 h
# [9] = wild type E. coli NCM3722, growth: N-lim chemostat, doubling time 6 h
# [10] = wild type E. coli NCM3722, growth: N-lim chemostat, doubling time 12 h
# [11] = wild type E. coli NCM3722, growth: P-lim chemostat, doubling time 6 h
# [12] = wild type E. coli NCM3722, growth: P-lim chemostat, doubling time 12 h
Sequence,total protein half-life in vivo [1] [h],total protein half-life in vivo [2] [h],total protein half-life in vivo [3] [h],total protein half-life in vivo [4] [h],total protein half-life in vivo [5] [h],total protein half-life in vivo [6] [h],total protein half-life in vivo [7] [h],total protein half-life in vivo [8] [h],total protein half-life in vivo [9] [h],total protein half-life in vivo [10] [h],total protein half-life in vivo [11] [h],total protein half-life in vivo [12] [h]
MSDDMSMGLPSSAGEHGVLRSMQEVAMSSQEASKMLRTYNIAWWGNNYYDVNELGHISVCPDPDVPEARVDLAQLVKTREAQGQRLPALFCFPQILQHRLRSINAAFKRARESYGYNGDYFLVYPIKVNQHRRVIESLIHSGEPLGLEAGSKAELMAVLAHAGMTRSVIVCNGYKDREYIRLALIGEKMGHKVYLVIEKMSEIAIVLDEAERLNVVPRLGVRARLASQGSGKWQSSGGEKSKFGLAATQVLQLVETLREAGRLDSLQLLHFHLGSQMANIRDIATGVRESARFYVELHKLGVNIQCFDVGGGLGVDYEGTRSQSDCSVNYGLNEYANNIIWAIGDACEENGLPHPTVITESGRAVTAHHTVLVSNIIGVERNEYTVPTAPAEDAPRALQSMWETWQEMHEPGTRRSLREWLHDSQMDLHDIHIGYSSGIFSLQERAWAEQLYLSMCHEVQKQLDPQNRAHRPIIDELQERMADKMYVNFSLFQSMPDAWGIDQLFPVLPLEGLDQVPERRAVLLDITCDSDGAIDHYIDGDGIATTMPMPEYDPENPPMLGFFMVGAYQEILGNMHNLFGDTEAVDVFVFPDGSVEVELSDEGDTVADMLQYVQLDPKTLLTQFRDQVKKTDLDAELQQQFLEEFEAGLYGYTYLEDE,4.96 ± 0.56,4.38 ± 0.22,4.3 ± 0.57,4.28 ± 0.16,3.97 ± 0.11,2.872 ± 0.017,5.43 ± 0.37,9.85 ± 0.33,3.93 ± 0.19,5.91 ± 0.16,5.54 ± 0.16,11.5 ± 0.38
MMINVQTVAVIGSGTMGAGIAEVAASHGHQVLLYDISAEALTRAIDGIHARLNSRVTRGKLTAETCERTLKRLIPVTDIHALAAADLVIEAASERLEVKKALFAQLAEVCPPQTLLTTNTSSISITAIAAEIKNPERVAGLHFFNPAPVMKLVEVVSGLATAAEVVEQLCELTLSWGKQPVRCHSTPGFIVNRVARPYYSEAWRALEEQVAAPEVIDAALRDGAGFPMGPLELTDLIGQDVNFAVTCSVFNAFWQERRFLPSLVQQELVIGGRLGKKSGLGVYDWRAEREAVVGLEAVSDSFSPMKVEKKSDGVTEIDDVLLIETQGETAQALAIRLARPVVVIDKMAGKVVTIAAAAVNPDSATRKAIYYLQQQGKTVLQIADYPGMLIWRTVAMIINEALDALQKGVASEQDIDTAMRLGVNYPYGPLAWGAQLGWQRILRLLENLQHHYGEERYRPCSLLRQRALLESGYES,> 8,,,,,,,,,,,
MTEQATTTDELAFTRPYGEQEKQILTAEAVEFLTELVTHFTPQRNKLLAARIQQQQDIDNGTLPDFISETASIRDADWKIRGIPADLEDRRVEITGPVERKMVINALNANVKVFMADFEDSLAPDWNKVIDGQINLRDAVNGTISYTNEAGKIYQLKPNPAVLICRVRGLHLPEKHVTWRGEAIPGSLFDFALYFFHNYQALLAKGSGPYFYLPKTQSWQEAAWWSEVFSYAEDRFNLPRGTIKATLLIETLPAVFQMDEILHALRDHIVGLNCGRWDYIFSYIKTLKNYPDRVLPDRQAVTMDKPFLNAYSRLLIKTCHKRGAFAMGGMAAFIPSKDEEHNNQVLNKVKADKSLEANNGHDGTWIAHPGLADTAMAVFNDILGSRKNQLEVMREQDAPITADQLLAPCDGERTEEGMRANIRVAVQYIEAWISGNGCVPIYGLMEDAATAEISRTSIWQWIHHQKTLSNGKPVTKALFRQMLGEEMKVIASELGEERFSQGRFDDAARLMEQITTSDELIDFLTLPGYRLLA,5.7 ± 1.2,4.82 ± 0.056,1.75 ± 0.022,2.2 ± 0.35,1.76 ± 0.22,2.25 ± 0.18,3.17 ± 0.25,4.18 ± 0.32,2.5 ± 1,2.59 ± 0.19,2.73 ± 0.2,5.08 ± 0.14
MLQNCAQSNCRIIPKKLRDMKREEICRLLADKVNKLKNKENSLSGLLPDVRLLYGETPFARTPVMYEPGIIILFSGHKIGYINERVFRYDANEYLLLTVPLPFECETYATSEVPLAGLRLNVDILQLQELLMDIGEDEHFQPSMAASGINSATLSEEILCAAERLLDVMERPLDARILGKQIIREILYYVLTGPCGGALLALVSRQTHFSLISRVLKRIENKYTENLSVEQLAAEANMSVSAFHHNFKSVTSTSPLQYLKNYRLHKARMMIIHDGMKASAAAMRVGYESASQFSREFKRYFGVTPGEDAARMRAMQGN,5 ± 0.43,3.07 ± 0.072,2.48 ± 0.13,4.33 ± 0.18,2.432 ± 0.0042,2.08 ± 0.1,3.87 ± 0.56,4.94,2.98,3.71 ± 0.24,2.74,4.35 ± 0.82
MKKIALIIGSMIAGGIISAAGFTWVAKAEPPAEKTSTAERKILFWYDPMYPNTRFDKPGKSPFMDMDLVPKYADEESSASGVRIDPTQTQNLGVKTATVTRGPLTFAQSFPANVSYNEYQYAIVQARAAGFIDKVYPLTVGDKVQKGTPLLDLTIPDWVEAQSEYLLLRETGGTATQTEGILERLRLAGMPEADIRRLIATQKIQTRFTLKAPIDGVITAFDLRAGMNIAKDNVVAKIQGMDPVWVTAAIPESIAWLVKDASQFTLTVPARPDKTLTIRKWTLLPGVDAATRTLQLRLEVDNADEALKPGMNAWLQLNTASEPMLLIPSQALIDTGSEQRVITVDADGRFVPKRVAVFQASQGVTALRSGLAEGEKVVSSGLFLIDSEANISGALERMRSESATHAH,2.95,4.8,5.69 ± 0.66,4.62,4.32 ± 1.3,> 4,5.79,> 16,5.73 ± 0.53,10.2 ± 0.68,5.52 ± 0.11,10.7 ± 0.35
MEMLSGAEMVVRSLIDQGVKQVFGYPGGAVLDIYDALHTVGGIDHVLVRHEQAAVHMADGLARATGEVGVVLVTSGPGATNAITGIATAYMDSIPLVVLSGQVATSLIGYDAFQECDMVGISRPVVKHSFLVKQTEDIPQVLKKAFWLAASGRPGPVVVDLPKDILNPANKLPYVWPESVSMRSYNPTTTGHKGQIKRALQTLVAAKKPVVYVGGGAITAGCHQQLKETVEALNLPVVCSLMGLGAFPATHRQALGMLGMHGTYEANMTMHNADVIFAVGVRFDDRTTNNLAKYCPNATVLHIDIDPTSISKTVTADIPIVGDARQVLEQMLELLSQESAHQPLDEIRDWWQQIEQWRARQCLKYDTHSEKIKPQAVIETLWRLTKGDAYVTSDVGQHQMFAALYYPFDKPRRWINSGGLGTMGFGLPAALGVKMALPEETVVCVTGDGSIQMNIQELSTALQYELPVLVVNLNNRYLGMVKQWQDMIYSGRHSQSYMQSLPDFVRLAEAYGHVGIQISHPHELESKLSEALEQVRNNRLVFVDVTVDGSEHVYPMQIRGGGMDEMWLSKTERT,5.76 ± 1.1,5.31 ± 0.18,5.06 ± 0.41,5.03 ± 0.088,5.13 ± 0.46,3.03 ± 0.14,6.41 ± 0.94,11.1 ± 0.39,4.78 ± 0.1,8.81 ± 0.62,6.092 ± 0.014,12 ± 0.24
MAYKHILIAVDLSPESKVLVEKAVSMARPYNAKVSLIHVDVNYSDLYTGLIDVNLGDMQKRISEETHHALTELSTNAGYPITETLSGSGDLGQVLVDAIKKYDMDLVVCGHHQDFWSKLMSSARQLINTVHVDMLIVPLRDEEE [P0AED0],3.96,4.94 ± 0.073,4.31 ± 0.27,4.3 ± 0.64,4.52 ± 0.15,3.34 ± 0.46,5.16 ± 0.1,10.7 ± 1.6,4.305 ± 0.0018,,5.92 ± 0.084,9.86 ± 1.9
